Substrate in this data set: Nc1ncnc2c1ncn2[C@@H]1O[C@H](COP(=O)(O)OP(=O)(O)OP(=O)(O)O)[C@@H](O)[C@H]1O
Kind of data set: purified protein. The class given is biochemical, Methanothermobacter thermautotrophicus. The settings on record: 10 mM Mg2+, 30 min, covalent enzyme-AMP formation, labelled compound.

B1: MthRnl (Methanobacterium thermoautotrophicum RNA ligase) (Methanothermobacter thermautotrophicus str. Delta H) (protein)
chain: MNSMNSDIPFDLIQERTGVPSSRLKVAFARGSLRLLESAGMQALLFKKPLGDLEAGTVIYLGDETEVIRGFPKIRRTLLLSPTIQEHFRDRVAVEEKMNGYNVRIACLSSGETVALTRGGHVCPFTTRKAQELLDLSEFFREHPDLVICGEMIGRDNPYVSQDYPEVGPLGFRVFDLREKNTNRPLPVEERRALLDSYGLPNVRLFGVYPIEEAASEVADIIRALGMAGREGVVMKDPSMEVPPLKYTSSQAHARELAYAFSYPFDFGRPFFFSRVIREGFQAYELDESDDETRERARRLGEAIIYPMLERIKSISAGEAAYEDTVIDVEDREAAEEFIRHLVRLGVSATLADYRDGRATIRRFYQSTTDRINNYLKGGLY
notes: full-length codon-optimized ORF, N-terminal His10 tag (pET16b), expressed in E. coli, tag cleavage not mentioned; homodimer, about 46 kDa per monomer (10 pmol = 460 ng)
B1: the Km (10 mM bis-Tris propane pH 7.0, 65°C) is 0.9 µM.

B2: MthRnl (Methanobacterium thermoautotrophicum RNA ligase) (Methanothermobacter thermautotrophicus str. Delta H; K246A) (protein)
chain: MNSMNSDIPFDLIQERTGVPSSRLKVAFARGSLRLLESAGMQALLFKKPLGDLEAGTVIYLGDETEVIRGFPKIRRTLLLSPTIQEHFRDRVAVEEKMNGYNVRIACLSSGETVALTRGGHVCPFTTRKAQELLDLSEFFREHPDLVICGEMIGRDNPYVSQDYPEVGPLGFRVFDLREKNTNRPLPVEERRALLDSYGLPNVRLFGVYPIEEAASEVADIIRALGMAGREGVVMKDPSMEVPPLAYTSSQAHARELAYAFSYPFDFGRPFFFSRVIREGFQAYELDESDDETRERARRLGEAIIYPMLERIKSISAGEAAYEDTVIDVEDREAAEEFIRHLVRLGVSATLADYRDGRATIRRFYQSTTDRINNYLKGGLY
notes: as for B1
B2: where the note is “10 mM bis-Tris propane pH 8.5, 65°C”, the Km was 60 µM.

One may read the Km as the substrate concentration at which the rate is half of its maximum.

For the origin of these results see PMC3514331, “Structure-function analysis of Methanobacterium thermoautotrophicum RNA ligase – engineering a thermostable ATP independent enzyme” (BMC Molecular Biology, 2012).
